Reference: paper PMC9482650, “Quantitative fragmentomics allow affinity mapping of interactomes” (Nature Communications, 2022)

T1: APBA1_2, Q02410
T1 sequence (Q02410 742-832, limits assumed, looked up): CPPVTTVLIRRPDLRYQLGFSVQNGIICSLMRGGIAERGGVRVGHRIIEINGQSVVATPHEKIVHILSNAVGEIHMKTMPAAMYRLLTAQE

T2: CARD11, Q9BXL7
T2 sequence (Q9BXL7 662-765, limits assumed, looked up): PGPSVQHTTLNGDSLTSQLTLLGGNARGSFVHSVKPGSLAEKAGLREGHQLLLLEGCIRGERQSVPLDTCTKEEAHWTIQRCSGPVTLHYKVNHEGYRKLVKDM

T3: DFNB31_3, Q9P202
T3 sequence (Q9P202 811-907, limits assumed, looked up): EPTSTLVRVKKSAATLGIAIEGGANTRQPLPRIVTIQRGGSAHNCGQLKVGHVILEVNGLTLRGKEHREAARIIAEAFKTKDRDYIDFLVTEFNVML

T4: GRIP1_2, Q9Y3R0
T4 sequence (Q9Y3R0 145-248, limits assumed, looked up): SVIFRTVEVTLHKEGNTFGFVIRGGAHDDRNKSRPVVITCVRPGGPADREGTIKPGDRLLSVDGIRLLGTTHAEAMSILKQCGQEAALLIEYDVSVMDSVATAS

T5: GRIP1_3, Q9Y3R0
T5 sequence (Q9Y3R0 247-346, limits assumed, looked up): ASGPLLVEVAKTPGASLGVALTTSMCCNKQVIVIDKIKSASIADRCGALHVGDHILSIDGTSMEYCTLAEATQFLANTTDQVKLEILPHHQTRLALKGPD

T6: GRIP1_5, Q9Y3R0
T6 sequence (Q9Y3R0 568-668, limits assumed, looked up): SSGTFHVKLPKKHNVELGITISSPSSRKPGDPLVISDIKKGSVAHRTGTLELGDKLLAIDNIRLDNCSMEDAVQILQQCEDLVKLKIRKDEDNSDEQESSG

T7: LIN7C, Q9NUP9
T7 sequence (Q9NUP9 88-185, limits assumed, looked up): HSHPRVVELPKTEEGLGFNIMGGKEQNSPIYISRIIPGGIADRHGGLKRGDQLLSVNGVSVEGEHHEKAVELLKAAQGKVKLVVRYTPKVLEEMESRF

T8: MPP7, Q5T2T1
T8 sequence (Q5T2T1 134-230, limits assumed, looked up): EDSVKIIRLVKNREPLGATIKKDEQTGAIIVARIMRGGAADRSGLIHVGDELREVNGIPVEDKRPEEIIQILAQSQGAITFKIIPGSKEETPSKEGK

T9: SYNJ2BP, P57105
T9 sequence (P57105 8-110, limits assumed, looked up): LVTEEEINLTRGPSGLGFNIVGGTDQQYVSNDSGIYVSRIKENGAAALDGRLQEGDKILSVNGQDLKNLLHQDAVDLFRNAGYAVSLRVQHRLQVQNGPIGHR

T10: TJP3_3, O95049
T10 sequence (O95049 375-456, limits assumed, looked up): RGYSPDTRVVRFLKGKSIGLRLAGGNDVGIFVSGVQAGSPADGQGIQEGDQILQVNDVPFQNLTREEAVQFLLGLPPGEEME


Tests used:
Assay in all cases: holdup assay
Parameters in all cases: key: below the threshold = too weak to quantify, mostly under pKd 3.1 to 4
Conditions in all cases: plain residues with an end cap or a label only (N-terminal biotin on a linker: ado-ado)
AHNAK1, Q09666 = molecular target: AHNAK1, Q09666
Sequence of AHNAK1, Q09666 (Q09666 4-100): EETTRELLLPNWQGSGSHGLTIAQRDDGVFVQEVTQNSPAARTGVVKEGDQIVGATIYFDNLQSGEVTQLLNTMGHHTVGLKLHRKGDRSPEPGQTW

APBA1_2, Q02410 = molecular target: T1, APBA1_2, Q02410
CARD11, Q9BXL7 = molecular target: T2, CARD11, Q9BXL7
DFNB31_3, Q9P202 = molecular target: T3, DFNB31_3, Q9P202
DLG1_3, Q12959 = molecular target: DLG1_3, Q12959
Sequence of DLG1_3, Q12959 (Q12959 457-571): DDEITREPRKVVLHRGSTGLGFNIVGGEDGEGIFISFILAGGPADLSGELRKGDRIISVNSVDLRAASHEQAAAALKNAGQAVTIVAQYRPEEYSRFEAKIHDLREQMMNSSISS

DLG4_3, P78352 = molecular target: DLG4_3, P78352
Sequence of DLG4_3, P78352 (P78352 306-403): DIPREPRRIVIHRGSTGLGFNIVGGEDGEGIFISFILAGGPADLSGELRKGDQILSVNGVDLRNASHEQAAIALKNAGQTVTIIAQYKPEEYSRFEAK

FRMPD3, Q5JV73 = molecular target: FRMPD3, Q5JV73
Sequence of FRMPD3, Q5JV73 (Q5JV73 12-100): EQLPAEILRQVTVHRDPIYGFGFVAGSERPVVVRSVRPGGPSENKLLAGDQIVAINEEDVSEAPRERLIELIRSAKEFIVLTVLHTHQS

GORASP2, Q9H8Y8 = molecular target: GORASP2, Q9H8Y8
GRID2IP_1, A4D2P6 = molecular target: GRID2IP_1, A4D2P6
Sequence of GRID2IP_1, A4D2P6 (A4D2P6 1-87): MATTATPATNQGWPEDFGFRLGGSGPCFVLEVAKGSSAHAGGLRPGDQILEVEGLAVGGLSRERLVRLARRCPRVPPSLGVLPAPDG

GRIP1_2, Q9Y3R0 = molecular target: T4, GRIP1_2, Q9Y3R0
GRIP1_3, Q9Y3R0 = molecular target: T5, GRIP1_3, Q9Y3R0
GRIP1_5, Q9Y3R0 = molecular target: T6, GRIP1_5, Q9Y3R0
GRIP2_3, Q9C0E4 = molecular target: GRIP2_3, Q9C0E4
Sequence of GRIP2_3, Q9C0E4 (Q9C0E4 238-339): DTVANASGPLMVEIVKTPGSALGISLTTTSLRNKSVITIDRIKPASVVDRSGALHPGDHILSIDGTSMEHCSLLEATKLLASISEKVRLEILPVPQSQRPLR

GRIP2_7, Q9C0E4 = molecular target: GRIP2_7, Q9C0E4
Sequence of GRIP2_7, Q9C0E4 (Q9C0E4 934-1023): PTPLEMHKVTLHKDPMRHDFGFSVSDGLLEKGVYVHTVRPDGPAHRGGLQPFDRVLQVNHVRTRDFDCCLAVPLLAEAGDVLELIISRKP

HTRA2, O43464 = molecular target: HTRA2, O43464
Sequence of HTRA2, O43464 (O43464 355-458): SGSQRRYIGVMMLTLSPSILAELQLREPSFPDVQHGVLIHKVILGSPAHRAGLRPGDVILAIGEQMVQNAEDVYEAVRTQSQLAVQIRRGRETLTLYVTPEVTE

LAP2, Q96RT1 = molecular target: LAP2, Q96RT1
Sequence of LAP2, Q96RT1 (Q96RT1 other isoform, or with tags, fused parts or gaps): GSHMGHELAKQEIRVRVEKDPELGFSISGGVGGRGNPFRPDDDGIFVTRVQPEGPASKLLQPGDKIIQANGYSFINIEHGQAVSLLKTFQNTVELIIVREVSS

LIN7C, Q9NUP9 = molecular target: T7, LIN7C, Q9NUP9
MAGI2_2, Q86UL8 = molecular target: MAGI2_2, Q86UL8
Sequence of MAGI2_2, Q86UL8 (Q86UL8 410-522): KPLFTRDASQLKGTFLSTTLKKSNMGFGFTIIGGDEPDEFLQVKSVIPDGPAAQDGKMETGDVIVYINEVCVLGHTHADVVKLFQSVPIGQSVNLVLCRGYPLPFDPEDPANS

MAGI2_4, Q86UL8 = molecular target: MAGI2_4, Q86UL8
Sequence of MAGI2_4, Q86UL8 (Q86UL8 772-865): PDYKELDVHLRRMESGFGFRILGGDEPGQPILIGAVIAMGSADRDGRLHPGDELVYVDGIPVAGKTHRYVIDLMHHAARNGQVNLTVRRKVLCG

MPP7, Q5T2T1 = molecular target: T8, MPP7, Q5T2T1
PDZRN4_1, Q6ZMN7 = molecular target: PDZRN4_1, Q6ZMN7
Sequence of PDZRN4_1, Q6ZMN7 (Q6ZMN7 213-318): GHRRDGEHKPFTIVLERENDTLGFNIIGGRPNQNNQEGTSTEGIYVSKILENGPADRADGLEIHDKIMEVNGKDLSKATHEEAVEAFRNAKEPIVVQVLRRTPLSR

SCRIB_1, Q14160 = molecular target: SCRIB_1, Q14160
Sequence of SCRIB_1, Q14160 (Q14160 718-814): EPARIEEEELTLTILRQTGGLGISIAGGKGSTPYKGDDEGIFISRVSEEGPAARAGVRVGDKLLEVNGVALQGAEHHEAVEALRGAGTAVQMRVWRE

SCRIB_2, Q14160 = molecular target: SCRIB_2, Q14160
Sequence of SCRIB_2, Q14160 (Q14160 857-960): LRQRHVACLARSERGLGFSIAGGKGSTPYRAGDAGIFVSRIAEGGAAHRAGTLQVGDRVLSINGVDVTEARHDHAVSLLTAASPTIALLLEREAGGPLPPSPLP

SNX27, Q96L92 = molecular target: SNX27, Q96L92
SYNJ2BP, P57105 = molecular target: T9, SYNJ2BP, P57105
TJP2_1, Q9UDY2 = molecular target: TJP2_1, Q9UDY2
Sequence of TJP2_1, Q9UDY2 (Q9UDY2 24-128): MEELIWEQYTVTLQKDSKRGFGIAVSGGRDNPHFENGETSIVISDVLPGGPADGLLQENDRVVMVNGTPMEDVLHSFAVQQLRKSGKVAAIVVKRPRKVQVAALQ

TJP3_3, O95049 = molecular target: T10, TJP3_3, O95049

Binder | pKd (AHNAK1, Q09666) | pKd (APBA1_2, Q02410) | pKd (CARD11, Q9BXL7) | pKd (DFNB31_3, Q9P202) | pKd (DLG1_3, Q12959) | pKd (DLG4_3, P78352) | pKd (FRMPD3, Q5JV73) | pKd (GORASP2, Q9H8Y8) | pKd (GRID2IP_1, A4D2P6) | pKd (GRIP1_2, Q9Y3R0) | pKd (GRIP1_3, Q9Y3R0) | pKd (GRIP1_5, Q9Y3R0) | pKd (GRIP2_3, Q9C0E4) | pKd (GRIP2_7, Q9C0E4) | pKd (HTRA2, O43464) | pKd (LAP2, Q96RT1) | pKd (LIN7C, Q9NUP9) | pKd (MAGI2_2, Q86UL8) | pKd (MAGI2_4, Q86UL8) | pKd (MPP7, Q5T2T1) | further results
SKENVQETQI [LRRC4B, Q9NT99] | below the threshold | below the threshold | below the threshold | 3.47 | 3.77 | below the threshold | below the threshold | below the threshold | below the threshold | below the threshold | below the threshold | below the threshold | below the threshold | below the threshold | below the threshold | 3.69 | 3.88 | below the threshold | below the threshold | below the threshold | pKd (PDZRN4_1, Q6ZMN7): 4.18; pKd (SCRIB_1, Q14160): 4.93; pKd (SCRIB_2, Q14160): 4.27; pKd (SNX27, Q96L92): 5.55; pKd (SYNJ2BP, P57105): 4.6; pKd (TJP2_1, Q9UDY2): below the threshold; pKd (TJP3_3, O95049): below the threshold
NLSIEKETKL [ASNSD1, Q9NWL6] | below the threshold | below the threshold | below the threshold | 3.52 | 3.53 | below the threshold | below the threshold | below the threshold | below the threshold | below the threshold | below the threshold | below the threshold | below the threshold | below the threshold | below the threshold | 3.52 | 4.2 | below the threshold | below the threshold | below the threshold | pKd (PDZRN4_1, Q6ZMN7): 4.83; pKd (SCRIB_1, Q14160): 4.3; pKd (SCRIB_2, Q14160): below the threshold; pKd (SNX27, Q96L92): 5.65; pKd (SYNJ2BP, P57105): 3.85; pKd (TJP2_1, Q9UDY2): below the threshold; pKd (TJP3_3, O95049): below the threshold
SSALYGESDL [ACTN2, P35609] | below the threshold | below the threshold | below the threshold | 3.64 | 3.75 | below the threshold | below the threshold | below the threshold | below the threshold | below the threshold | below the threshold | below the threshold | below the threshold | below the threshold | below the threshold | 3.96 | below the threshold | below the threshold | below the threshold | below the threshold | pKd (PDZRN4_1, Q6ZMN7): 3.62; pKd (SCRIB_1, Q14160): 4.23; pKd (SCRIB_2, Q14160): 4.06; pKd (SNX27, Q96L92): 4.76; pKd (SYNJ2BP, P57105): 3.87; pKd (TJP2_1, Q9UDY2): below the threshold; pKd (TJP3_3, O95049): below the threshold
GQEEQVTTRL [TRPC5, Q9UL62] | below the threshold | 3.58 | below the threshold | 3.8 | below the threshold | below the threshold | below the threshold | below the threshold | below the threshold | below the threshold | below the threshold | below the threshold | below the threshold | below the threshold | below the threshold | below the threshold | below the threshold | below the threshold | below the threshold | below the threshold | pKd (PDZRN4_1, Q6ZMN7): 3.64; pKd (SCRIB_1, Q14160): 3.79; pKd (SCRIB_2, Q14160): below the threshold; pKd (SNX27, Q96L92): 5.47; pKd (SYNJ2BP, P57105): below the threshold; pKd (TJP2_1, Q9UDY2): below the threshold; pKd (TJP3_3, O95049): below the threshold
